Columns and labels:
Assay in all cases: ITC; ITC at 30 C in TBS with 1 mM TCEP (pH not stated); 8 uM (6-10) protein in cell, 40 uM (15-50) nucleic acid in syringe; one-site model
[1] = molecular target: p7NC (HIV-1, UniProt P12493 378-432); details: protein: recombinant, tags: C-terminal His
[2] = molecular target: T1, Pr55Gag (HIV-1, UniProt P12493 1-500); details: protein: recombinant, tags: C-terminal His
[3] = molecular target: p15NC-SP2-p6 (HIV-1, UniProt P12493 378-500); details: protein: recombinant, tags: C-terminal His
[4] = molecular target: Pr50GagΔp6 (HIV-1, UniProt P12493 1-448); details: protein: recombinant, tags: C-terminal His
[5] = molecular target: T1, Pr55Gag; details: protein: recombinant; tags: C-terminal His
[6] = molecular target: Pr55Gag-TEV (HIV-1, UniProt P12493 1-500); details: protein: recombinant; tags: His removed by TEV protease; TEV site remnant at C-term
[7] = molecular target: Pr50GagΔp6-TEV (HIV-1, UniProt P12493 1-448); details: protein: recombinant; tags: His removed by TEV protease; TEV site remnant at C-term

GGACUAGCGGAGGCUAGUCC (structured_RNA) [Psi SL3 RNA (20mer)]
Kd ([1]; hairpin): 48 ± 23 nM
Kd ([2]; hairpin): 81 ± 25 nM
Kd ([3]; hairpin): 57 ± 11 nM
Kd ([4]; hairpin): 98 ± 3 nM

GAGAAGAGAAGAGAAGAGAA (ssRNA) [4x 5'-GAGAA-3' (A-containing)]
binding signal [5]: ~3 fold stronger Kd than GU-containing RNA (average over sets)

GAUGGGAUGGGAUGGGAUGG (ssRNA) [4x 5'-GAUGG-3' (GU-containing)]
binding result [1]: binds
binding result [6]: binds
binding result [2]: binds
binding result [7]: binds
binding result [3]: binds
binding result [4]: binds

CUUAGAAAUAGGGCAGCAUAGAACAAAAAUAGAGGAA (ssRNA) [HIVNL4.3RNA2671-2707]
binding result [6]: binds
binding result [7]: binds

Reference: article PMC5336307, “The thermodynamics of Pr55Gag-RNA interaction regulate the assembly of HIV”
